Measured values from publication PMC8080960 (The journal of physical chemistry. B, 2021).

Molecular target: the molecule itself
Experiment: amyloid fibril formation

B1: C-terminal domain of TDP-43 (TDP-43CTD), wild type, residues 267-414, tagless (domain or fragment)
chain: GHMNRQLERSGRFGGNPGGFGNQGGFGNSRGGGAGLGNNQGSNMGGGMNFGAFSINPAMMAAAQAALQSSWGMMGMLASQQNQSGPSGNNQNQGNMQREPNQAFGSGNNSYSGSNSGAAIGWGSASNAGSGSGFNGGFGSSMDSKSSGWGM
binding result: binds
